B1: A. fumigatus CBC consisting of the subunits HapB^230-299, HapC^40-137 and HapE^47-164 (complex)
chain 1: not shown
chain 2: KEQDRWLPIANVARIMKLALPENAKIAKEAKECMQECVSEFISFITSEASEKCQQEKRKTVNGEDILFAMTSLGFENYAEALKIYLSKYRETQSARGE
chain 3: GTWANVNQGLQGTARDILTTYWQHIINHLESDNHDYKIHQLPLARIKKVMKADPEVKMISAEAPILFAKGCDIFITELTMRAWIHAEDNKRRTLQRSDIAAALSKSDMFDFLIDIVPR

The target of assay [1] is A. fumigatus HapX^24-158 W40A (Aspergillus fumigatus, UniProt Q4WER3 24-158, W40A). The experiment in a line: SPR; CBC preformed on AfucccA 37 bp DNA. On the technique in general: In SPR one partner is held on a chip, and binding of the other changes the refractive index at the surface.
For assay [2], the target named is T1, A. fumigatus HapX^24-158 ΔT36-I42 (Aspergillus fumigatus, UniProt Q4WER3 24-158, ΔT36-I42). The assay is described as follows: SPR; CBC preformed on AfucccA 37 bp DNA.
Assay [3] has as its target T1, A. fumigatus HapX^24-158 ΔT36-I42. The experiment in a line: SPR; CBC preformed on Afucyp51A 37 bp DNA.
In assay [4] the target is A. fumigatus HapX^24-158 R50A (Aspergillus fumigatus, UniProt Q4WER3 24-158, R50A). The assay is described as follows: SPR; CBC preformed on AfucccA 37 bp DNA.
For assay [5], the target named is A. fumigatus HapX^24-158 K38E (Aspergillus fumigatus, UniProt Q4WER3 24-158, K38E). The assay is described as follows: SPR; CBC preformed on AfucccA 37 bp DNA.
Assay [6] concerns the target A. fumigatus HapX^24-158 R45A (Aspergillus fumigatus, UniProt Q4WER3 24-158, R45A). The assay is described as follows: SPR; CBC preformed on AfucccA 37 bp DNA.
Assay [7] addresses B1. The experiment in a line: SPR.
The target in assay [8] is B1. The assay is described as follows: SPR. The source holds these as a separate data set.
The target in assay [9] is B1. The assay is described as follows: SPR. The source holds these as a separate data set.
Assay [10] concerns the target B1. The experiment in a line: SPR. This is another data set of the same source.

Where two headings read alike, the source gives them in different places.

Usually Kd stands for a measure of binding affinity in units of concentration. A high value points to a looser complex.

For B1, the Kd in [1] was found to be 13.2 nM; in [2], 136 nM; in assay [3], 511 nM; in assay [4], 3.93 nM; in assay [5], 3.76 nM; in assay [6], 2.86 nM.

B2: A. fumigatus HapX^24-158 wild type (domain or fragment)
chain: SPSPGPGTPGSITSKEWVIPPRPKPGRKPATDTPPTKRKAQNRAAQRAFRERRAARVNELEEQIKKIEDEHEIHIAAFKEQITNLSREVEQCRSEMTWWRDRCHALEKEVSVERSAKEAIVKEFRSSLSDREAVR
For B2, the Kd in assay [7] is 0.9 nM; in assay [8], 0.34 nM; in assay [9] it was 28.3 nM; in assay [10], 22.7 nM.

For the origin of these results see doi:10.1101/2021.07.15.452465 (2021).
